Values of other authors as cited in article PMC8035318.

Biological target: Polκ RIR (Homo sapiens) (UniProt Q9UBT6)
Assay: SPR

Rev1 CT (from UniProt Q9UBZ9)
Kd: 1700 nM
